From patent US20200190176A1 (VERITAS THERAPEUTICS, published 2020)
Each block holds one binder with its values, some of them ahead of it.

Columns and labels:
[1] = molecular target: T1, recombinant mouse FGL2 (mouse, UniProt P12804 27-432, limits assumed); assay: SPR, Biacore 3000, 25 C, antibody captured by goat anti-mouse Fc, FGL2 as analyte
T1 construct: native mouse FGL2 is said to exist as an oligomer; also called murine recombinant FGL2
T1 sequence (looked up): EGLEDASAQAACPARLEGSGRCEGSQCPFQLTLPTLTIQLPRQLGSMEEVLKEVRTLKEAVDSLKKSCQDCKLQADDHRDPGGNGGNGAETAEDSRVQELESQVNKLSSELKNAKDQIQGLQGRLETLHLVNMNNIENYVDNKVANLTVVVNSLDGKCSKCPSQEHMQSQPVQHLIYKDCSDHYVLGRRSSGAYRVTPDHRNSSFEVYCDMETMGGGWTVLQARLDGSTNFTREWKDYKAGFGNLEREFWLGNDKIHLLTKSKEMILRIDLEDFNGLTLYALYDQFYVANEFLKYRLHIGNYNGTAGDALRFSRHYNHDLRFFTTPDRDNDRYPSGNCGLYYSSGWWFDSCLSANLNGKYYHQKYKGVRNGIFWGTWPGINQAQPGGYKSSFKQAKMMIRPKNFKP
Method: (§1) The response difference (Resp. Diff.) for each experiment was plotted against time (s). Resp. Diff. is the ligand-immobilized flow cell minus the control flow cell. A) Human FGL2. For the full kinetic analysis, SPR was performed using 0.625 nM, 2.5 nM, 5 nM, and 10 nM recombinant human FGL2. B) Mouse FGL2. For this analysis, SPR was performed using 10 nM recombinant mouse FGL2.
(§2) Binding experiments were performed on Biacore 3000 at 25° C. Flow cell 2 was coated with 1,000 RU of the goat anti-mouse Fc capture Ab by direct immobilization using EDC/NHS amine coupling method and the unoccupied sites were blocked with 1M ethanolamine. 9D8 or 3H9 was captured at an RU as indicated. Either recombinant human or mouse FGL2 was flowed over the chip and binding to 9D8 or 3H9 was monitored in real time. From the observed kon and koff, KD was determined.

[2] = molecular target: T2, recombinant human FGL2 (human, UniProt Q14314 30-439, limits assumed); assay: as above
T2 construct: also called hFGL2; FGL2/fibroleukin
T2 sequence (looked up): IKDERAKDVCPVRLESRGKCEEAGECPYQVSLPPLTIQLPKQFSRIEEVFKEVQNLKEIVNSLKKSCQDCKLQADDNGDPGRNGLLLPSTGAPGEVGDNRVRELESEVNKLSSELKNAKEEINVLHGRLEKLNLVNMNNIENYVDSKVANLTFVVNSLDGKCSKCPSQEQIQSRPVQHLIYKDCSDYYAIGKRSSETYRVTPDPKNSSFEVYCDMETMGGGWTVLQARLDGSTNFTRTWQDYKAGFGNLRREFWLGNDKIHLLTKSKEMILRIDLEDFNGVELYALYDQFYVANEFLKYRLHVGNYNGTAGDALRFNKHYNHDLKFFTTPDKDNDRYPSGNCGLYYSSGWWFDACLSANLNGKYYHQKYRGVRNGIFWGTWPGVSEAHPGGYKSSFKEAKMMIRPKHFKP
Method: as §1, §2

Kd [1]: 1.8 nM
koff [1]: 0.00334 s⁻¹
kon [1]: 1.85e+06 M⁻¹ s⁻¹
Kd [2]: 0.857 nM
koff [2]: 0.0019 s⁻¹
kon [2]: 2.22e+06 M⁻¹ s⁻¹
B1: anti-FGL2 monoclonal antibody 9D8 (antibody, mouse IgG1, kappa, V domains shown)
VH: EVQLQQSGAELVKPGASVQLSCTASGFNIKDTYIHWVKQRPEQGLEWIGRIDPEDGNTKYDPKFQAKATITADTFSNTAYLQLSSLTSEDTAVYYCARSYGNAYWGQGTLVTVSA
VL: DIVLTQSPASLAVSLGQRATISCRASQSVSTSRYTYMHWYQQKPGQPPKLLIKYASNLDSGVPARFSGSGSGTDFTLNIHPVQEEDTATYYCQHSWEIWAFGGGTKLEIKR
notes: Mouse hybridoma antibody purified from ascites; isotype-matched control was IgG1; here built without leader from variable region plus constant region; also called clone 9D8; antibody to FGL2 (9D8)

Kd [1]: 0.103 nM
koff [1]: 0.000189 s⁻¹
kon [1]: 1.84e+06 M⁻¹ s⁻¹
Kd [2]: 0.286 nM
koff [2]: 0.000884 s⁻¹
kon [2]: 3.09e+06 M⁻¹ s⁻¹
B2: anti-FGL2 monoclonal antibody 3H9 (antibody, mouse IgG2b, kappa, V domains shown)
VH: EVQLQQSGPELVKSGASVKISCKTSGYTFTEYTIHWVKQSHGESLEWVGGINPKNGGISYNQKFKGKATLTVDKSSSTAYMELRSLTSEDSAVYFCARWGIGNYVGFPYWGQGTLVTVSA
VL: SIVMTQTPKFLLVSAGDRVTMTCKASLSVNNDVAWYQQKPGQSPKLLISYASSRYTGVPDRFTGSGYGTDFTFTISSVQAEDLAVYFCQQDYSSPLTFGAGTKLELKR
notes: Mouse hybridoma antibody generated in the same manner as 9D8; here built without leader
